Test results reported in patent US12728086B2, “Sunscreens derived from kynurenines and other UV-absorbing oxidized amino acids bound to peptides or polymers” (The Trustees of Princeton University, priority 2021, dated 2026).
“And” between values parts separate entries of the source, which are not always exact repeats. Equal values may be shown once.

Test: UV-visible spectroscopy of oxidized or kynurenine-modified amino acids, peptides, proteins and polymers
Format: physicochemical
Method: A prototype of oxidized amino acid-bearing peptides from enzymatic hydrolysate of pea protein was made. […] More particularly, peptides derived from enzymatic hydrolysis of pea protein (Sigma, 16974) were oxidized in 50 mM sodium phosphate buffer at room temperature using ozone bubbled through the solution (A2Z Ozone Inc., MP1000).
A prototype of kynurenine-bearing polymers was produced from enzymatic hydrolysis of soy protein generating starting peptide material. The soluble peptides were then oxidized in a semi-sealed container into which ozone was pumped.
This was done with bovine serum albumin buffer exchanged with into 50 mM sodium phosphate pH 6.5 to remove small molecule impurities.
The polymeric lysine (8.8 mg) was suspended in 200 microliters of 50 mM sodium bicarbonate pH 9.5 and treated with DL-kynurenine (Sigma 61250) (~1 mM) for 44 hours at 37° C. in the dark. […] Controls of poly-lysine with no added kynurenine and that of kynurenine without poly-lysine were run concurrently. […] Soy peptides were used similarly, though they also contain other potential nucleophilic residues besides lysine to which kynurenine monomers could be added, including cysteine and histidine. These soy peptides were generated from overnight incubation at 37° C. of soy protein powder (5 g/100 mL deionized water) using porcine pepsin (0.5 mg/mL) all brought to pH 2.0 using hydrochloric acid. After this incubation, insoluble material was removed via centrifugation, and the clarified solution was brought to pH 9.5 using sodium hydroxide. This soy peptide solution was added in two parts to one part 50 mM sodium bicarbonate pH 9.5. To 1 mL of soy peptide solution was added 0.2 mL DLkynurenine (final 1 mM), and this was incubated for 44 hours at 37° C. in the dark. To isolate peptides from free kynurenine to determine if kynurenine monomers were added by UV-visible spectroscopy, small molecules and even some small peptides were removed with size exclusion (Sephadex G-50, GE Healthcare).

[1] = after treatment with ozone, UV-visible spectroscopy
[2] = after incubation with DL-kynurenine (44 hours, 37° C., pH 9.5) and size exclusion

Molecule	region of increased absorbance [1]	region of increased absorbance [2]	wavelength of absorbance increase in the UVA [2]
N[C@@H](Cc1c[nH]c2ccccc12)C(=O)O [L-tryptophan]	300 to 400 nm and 300-400 nm		
NC(CC(=O)c1ccccc1NC=O)C(=O)O (centres unmarked) [N-formyl kynurenine]	300-350 nm		
bovine serum albumin: bovine serum albumin stirred under a stream of ozone for 8 hours	300-350 nm		
poly-L-lysine		300-400 nm	around 360 nm
